These are literature values, as cited in PMC3505834.

In this data set the target is C3b C3b (Homo sapiens) (UniProt P01024).
C3b C3b (Homo sapiens), sequence (P01024 566-670): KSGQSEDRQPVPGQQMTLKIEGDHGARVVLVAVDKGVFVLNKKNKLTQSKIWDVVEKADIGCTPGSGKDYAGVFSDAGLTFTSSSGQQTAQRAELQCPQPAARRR

CD46, sequence (P15529 35-343): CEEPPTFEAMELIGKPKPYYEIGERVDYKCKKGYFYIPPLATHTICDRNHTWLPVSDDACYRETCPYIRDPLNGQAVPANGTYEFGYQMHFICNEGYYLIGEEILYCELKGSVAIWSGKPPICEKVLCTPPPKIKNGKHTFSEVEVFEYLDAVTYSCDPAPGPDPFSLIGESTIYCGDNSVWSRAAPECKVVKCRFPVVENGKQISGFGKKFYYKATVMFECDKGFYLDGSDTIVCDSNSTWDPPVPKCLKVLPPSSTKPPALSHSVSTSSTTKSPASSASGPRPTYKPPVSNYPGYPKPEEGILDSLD

What is called Kd is a measure of binding affinity in units of concentration. With CD46 (from UniProt P15529), the Kd is 1000 nM.
